Source: patent publication US20090074790A1, “Methods for measuring transforming growth factor beta (TGF-beta) receptor signaling activity and uses thereof” (priority 2004, published 2009)

Target: TGFβ type I receptor (TβR-I) on human cells (human) (UniProt P36897)
Assay: cell-based or functional assay

TGFβ type I receptor (TβR-I) on human cells (human), sequence (P36897 34-503): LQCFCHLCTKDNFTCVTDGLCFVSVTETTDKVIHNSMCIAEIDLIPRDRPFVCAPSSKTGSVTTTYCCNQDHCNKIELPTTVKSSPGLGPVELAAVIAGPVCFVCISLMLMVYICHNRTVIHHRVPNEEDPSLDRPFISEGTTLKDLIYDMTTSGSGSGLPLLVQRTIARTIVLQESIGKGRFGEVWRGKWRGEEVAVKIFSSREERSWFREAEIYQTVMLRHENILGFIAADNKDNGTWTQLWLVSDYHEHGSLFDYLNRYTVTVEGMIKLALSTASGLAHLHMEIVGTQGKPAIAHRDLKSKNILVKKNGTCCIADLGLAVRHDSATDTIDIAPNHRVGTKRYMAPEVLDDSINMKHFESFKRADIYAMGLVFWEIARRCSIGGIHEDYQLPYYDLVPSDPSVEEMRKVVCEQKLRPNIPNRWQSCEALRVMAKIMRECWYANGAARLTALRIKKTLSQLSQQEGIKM

growth inhibition of human keratinocytes: 5 pM
Substance: TGFβ (exogenous, added to human keratinocyte cultures) (ligand)
